Biological target: VEGF (added at 4 ng/ml in the HUVEC/NHDF angiogenesis assay)
Assay: cell-based or functional assay

Sequence of VEGF (added at 4 ng/ml in the HUVEC/NHDF angiogenesis assay) (P15692 whole entry): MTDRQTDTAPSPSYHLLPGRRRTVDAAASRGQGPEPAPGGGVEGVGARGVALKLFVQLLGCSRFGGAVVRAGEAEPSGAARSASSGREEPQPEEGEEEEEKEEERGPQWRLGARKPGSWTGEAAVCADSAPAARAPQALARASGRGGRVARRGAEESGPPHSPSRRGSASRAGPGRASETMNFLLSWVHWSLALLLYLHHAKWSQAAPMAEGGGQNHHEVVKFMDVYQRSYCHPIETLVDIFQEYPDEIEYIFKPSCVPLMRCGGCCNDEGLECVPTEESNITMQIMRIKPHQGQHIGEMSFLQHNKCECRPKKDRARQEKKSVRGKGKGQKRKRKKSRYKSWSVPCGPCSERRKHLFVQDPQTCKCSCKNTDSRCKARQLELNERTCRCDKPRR

| IC50 angiogenesis: network branching [mg/L] | IC50 angiogenesis: tube length [mg/L] | Binder |
| --- | --- | --- |
| 18 | 18 | vNAR V13 (parental sequence) (other) ASLDQTPRTATRETGESLSINCVLTDTSHILFGTKWLWNNPGSTDWESITIGGRYAESVNNQAKSFSLQIKDLTVEDSGTYYCKAQTIGRRKNLLPRPLVNGIAAMGYSSSDYDGAGTVLTVN |
| 33 | 21 | vNAR R97A (clone M4) (other) ASLDQTPRTATRETGESLSINCVLTDTSHILFGTKWLWNNPGSTDWESITIGGRYAESVNNQAKSFSLQIKDLTVEDSGTYYCKAQTIGRRKNLLPAPLVNGIAAMGYSSSDYDGAGTVLTVN |
| 11 | 9 | vNAR P98Y (clone M1), anti-VEGF vNAR of SEQ ID NO:1 (other) ASLDQTPRTATRETGESLSINCVLTDTSHILFGTKWLWNNPGSTDWESITIGGRYAESVNNQAKSFSLQIKDLTVEDSGTYYCKAQTIGRRKNLLPRYLVNGIAAMGYSSSDYDGAGTVLTVN |
